Measurements from paper PMC11139201, “RsaL is a self‐regulatory switch that controls alternative biosynthesis of two AHL‐type quorum sensing signals in Pseudomonas aeruginosa PA1201”.

Biological target: RsaL (Pseudomonas aeruginosa PA1201, UniProt Q9X7H4 1-80)
Assay: EMSA; EMSA: 10 mM Tris-HCl pH 8.0, 1 mM EDTA, 5 mM MgCl2, 50 mM KCl, 2.5% glycerol, 30 ug/ml poly(dI-dC), 0.05% NP-40, room temperature 20 min; footprint: 100 ng probe in 40 ul, 30 min room temperature, DNase I 1 min 25 C
Details: protein: recombinant, tags: His (pET28a), chain copies: 2

B1: PRO-II (dsDNA)
DNA 1: AAATGAGATAGATTTCGGTGAACCCGGACCCTTGCTAGGCTCGAAGAAACGTCCGAAAAGATCAGAGCAATGGCTTCACACGAG
DNA 2: CTCGTGTGAAGCCATTGCTCTGATCTTTTCGGACGTTTCTTCGAGCCTAGCAAGGGTCCGGGTTCACCGAAATCTATCTCATTT
B1: binds (label: Cy5).

B2: PRO-II-p (dsDNA)
DNA 1: AAATGAGATAGGCCCCGGTGAACCCGGACCCTTGCTAGGCTCGAAGAAACGTCCGAAAAGATCAGAGCAATGGCTTCACACGAG
DNA 2: CTCGTGTGAAGCCATTGCTCTGATCTTTTCGGACGTTTCTTCGAGCCTAGCAAGGGTCCGGGTTCACCGGGGCCTATCTCATTT
B2: no binding.
